Measurements: patent publication US20140289906A1, “Compositions Having Dicamba Decarboxylase Activity and Methods of Use” (priority 2013, published 2014)
Residue numbers refer to the chain shown, from its start. Names may count otherwise.

B1: 111 (protein)
chain: MAQGKVALEEHFAIPETLQDSMGFVPGDYWKELMHRLLDIQDTRLKLMDAHGIETMILSLNAPAVQAIPDRRKAIEIARRANDVLAEECAKRPDRFLAFAALPLQDPDAATEELQRCVNDLGFVGALVNGFSQEGDGQTPLYYDLPQYRPFWGEVEKLDVPFYLHPRNPLPQDSRIYDGHPWLLGPTWAFAQETAVHALRLMASGLFDEHPRLNIILGHMGEGLPYMMWRIDHRMAWIKLPPRYPAKRRFMDYFNENFHITTSGNFRTQTLIDAILEIGADRILFSTDWPFENIDHASDWFNATSIAEADRVKIGRTNARRLFKLDGA
modifications: Dicamba decarboxylase variant clone DC.4.112
B2: D42A: point mutation of SEQ ID NO:109 (protein)
chain: B1 chain with M22A, M34Q, D42A, M235V, I238V
modifications: Dicamba decarboxylase variant clone DC.4.032
B3: A328D: point mutation of SEQ ID NO:109 (protein)
chain: B1 chain with M22A, M34Q, M235V, I238V, A328D
modifications: Dicamba decarboxylase variant clone DC.4.032
B4: G27S: point mutation of SEQ ID NO:109 (protein)
chain: B1 chain with M22A, G27S, M34Q, M235V, I238V
modifications: Dicamba decarboxylase variant clone DC.4.032
B5: G27A: point mutation of SEQ ID NO:109 (protein)
chain: B1 chain with M22A, G27A, M34Q, M235V, I238V
modifications: Dicamba decarboxylase variant clone DC.4.032
B6: G327Q: point mutation of SEQ ID NO:109 (protein)
chain: B1 chain with M22A, M34Q, M235V, I238V, G327Q
modifications: Dicamba decarboxylase variant clone DC.4.032
B7: 113 (protein)
chain: B1 chain with M22A, W30L, M34F, M235V, I238V
modifications: Dicamba decarboxylase variant clone DC.4.114
B8: L38I: point mutation of SEQ ID NO:109 (protein)
chain: B1 chain with M22A, M34Q, L38I, M235V, I238V
modifications: Dicamba decarboxylase variant clone DC.4.032
B9: G52E: point mutation of SEQ ID NO:109 (protein)
chain: B1 chain with M22A, M34Q, G52E, M235V, I238V
modifications: Dicamba decarboxylase variant clone DC.4.032
B10: G27T: point mutation of SEQ ID NO:109 (protein)
chain: B1 chain with M22A, G27T, M34Q, M235V, I238V
modifications: Dicamba decarboxylase variant clone DC.4.032
B11: D42S: point mutation of SEQ ID NO:109 (protein)
chain: B1 chain with M22A, M34Q, D42S, M235V, I238V
modifications: Dicamba decarboxylase variant clone DC.4.032
B12: A328R: point mutation of SEQ ID NO:109 (protein)
chain: B1 chain with M22A, M34Q, M235V, I238V, A328R
modifications: Dicamba decarboxylase variant clone DC.4.032
B13: D42M: point mutation of SEQ ID NO:109 (protein)
chain: B1 chain with M22A, M34Q, D42M, M235V, I238V
modifications: Dicamba decarboxylase variant clone DC.4.032
B14: 112 (protein)
chain: B1 chain with M22A, M34V, M235V, I238V
modifications: Dicamba decarboxylase variant clone DC.4.113

Assays:
[1] = 14C assay: 14CO2 capture from [14C]-carboxyl-labeled dicamba with purified protein; assay type: biochemical
[2] = LC-MS/MS detection of 4-chloro-3-methoxy phenol; assay type: biochemical; settings: purified protein, dicamba
Method: The decarboxylated and chloro hydrolyzed product, 4-chloro-3-methoxy phenol (FIG. 1D), is measured using a LC-MS/MS analytical procedure. […] 10 ul is removed from the reaction mixture and mixed with 90 ul pre-chilled methanol followed by centrifugation at 14,000 rpm for 15 min at 4° C. 10 ul of the supernatant is then transferred into 170 ul ddH2O to achieve 5% methanol solution for injection. 50 ul of the prepared sample is injected into a 4000 Q Trap LC-MS/MS system for sample analysis. LC-MS/MS parameters are: Mobile Phase A, 2 mM ammonium acetate in water; Mobile Phase B, 2 mM ammonium acetate in methanol; Column, Aquasil, 100×2.1 mm, 3 μm, C18 column; Flow Rate, 0.6 ml/min. The MS/MS fragment 157/142 which is common to 4-chloro-3-methoxy phenol, 2-chloro-5-methoxy phenol, and 3-chloro-5-methoxy phenol is monitored at a retention time of 2.88 min.

[3] = GC/MS detection of 2,5-dichloro phenol (2,5-DCP); kinetic determination; assay type: biochemical; settings: purified protein, dicamba
Method: The decarboxylated and demethylated product of dicamba, 2,5-dichloro phenol or 2,5-DCP (FIG. 1E) is measured using a GC/MS analytical procedure with either liquid injection after liquid/liquid extraction using toluene as the extraction solvent or gas injection using head space method. The head space sample analysis is carried out on an Agilent GC/MS system with a 6890A GC, a 5973N MSD and a CTC CombiPAL auto-sampler or with a 7890A GC, a 5975C MSD and an Agilent GC Sampler 80 auto-sampler with Phenomenex ZB-MultiResidue-1 column (30 m length, 0.25 mm diameter, 0.25 um film) or equivalent. GC/MS parameters are: GC inlet temperature, 200° C.; Carry gas, helium in constant flow mode (1.2 mL/min); Oven temperature program, 70° C. for 1 min and then ramp to 275° C. at 40° C./min. […] The reaction vial is transferred to a agitator for incubation at 90° C. for 4 min at 500 rpm. With a syringe preheated at 110° C., 1000 uL of head space is injected with sample fill speed at 100 uL/sec. A 2-mm diameter liner is used in sample inlet. The MS data acquisition is done in SIM (selected ion monitoring) mode. The positive ion at M/Z 162 for the molecular ion of 2,-5-DCP is monitored at retention time of 4.06 min. Solvent delay for MS acquisition is set at 3 min. GC/MS parameters for liquid sample analysis are the same as those for head space analysis, except that the volume of liquid injection is 1 uL.

[4] = Dicamba decarboxylation activity of computationally designed protein variants and parents (Tables 4, 5); settings: native proteins and designed variants; assay not specified
[5] = 14C assay: 14CO2 capture from [14C]-carboxyl-labeled dicamba with IPTG-induced recombinant E. coli cells; settings: dicamba decarboxylation activity
[6] = Saturation mutagenesis of SEQ ID NO:109: dicamba decarboxylation activity of point mutants (Table 7)
[7] = dicamba decarboxylation activity of point mutants of SEQ ID NO: 109 from NNK saturation mutagenesis, 0.7-fold used as cut-off
[8] = point mutant of SEQ ID NO:109, dicamba decarboxylation activity relative to the unchanged template

Molecule | Average Activity (Fold of SEQ ID NO: 109) [6, 7] | Average Activity (Fold of SEQ ID NO: 109) [6, 8] | further results
B1 |  |  | CO2 product detected [1]: detected; 4-chloro-3-methoxy phenol product detected [2]: detected; 2,5-DCP product detected [3]: detected; dicamba decarboxylase activity (statement in the description) [4]: displays an increase in dicamba decarboxylase activity; Enzymatic Detection level [5]: High
B2 | 2.0 Fold of SEQ ID NO: 109 |  | 
B3 | 2.3 Fold of SEQ ID NO: 109 | 2.3 Fold of SEQ ID NO: 109 | 
B4 | 2.2 Fold of SEQ ID NO: 109 | 2.2 Fold of SEQ ID NO: 109 | 
B5 | 2.0 Fold of SEQ ID NO: 109 |  | 
B6 | 2.8 Fold of SEQ ID NO: 109 | 2.8 Fold of SEQ ID NO: 109 | 
B7 |  |  | CO2 product detected [1]: detected; 4-chloro-3-methoxy phenol product detected [2]: detected; 2,5-DCP product detected [3]: detected; dicamba decarboxylase activity (statement in the description) [4]: displays an increase in dicamba decarboxylase activity; Enzymatic Detection level [5]: High
B8 | 2.0 Fold of SEQ ID NO: 109 | 2.0 Fold of SEQ ID NO: 109 | 
B9 | 3.1 Fold of SEQ ID NO: 109 | 3.1 Fold of SEQ ID NO: 109 | 
B10 | 2.0 Fold of SEQ ID NO: 109 |  | 
B11 | 2.0 Fold of SEQ ID NO: 109 |  | 
B12 | 3.0 Fold of SEQ ID NO: 109 |  | 
B13 | 2.4 Fold of SEQ ID NO: 109 | 2.4 Fold of SEQ ID NO: 109 | 
B14 |  |  | CO2 product detected [1]: detected; 4-chloro-3-methoxy phenol product detected [2]: detected; 2,5-DCP product detected [3]: detected; dicamba decarboxylase activity (statement in the description) [4]: displays an increase in dicamba decarboxylase activity; Enzymatic Detection level [5]: High
